As a reminder, the EC50 is the concentration that produces a half-maximal response. The IC50 is the concentration that inhibits the measured activity by half.

No end group written: not given here.

The target in one assay is T1, factor VIIIa (Homo sapiens, UniProt P00451).
T1 construct: to yield factor VIIIa, a heterotrimer composed of A1, A2 and A3-C1-C2 subunits; cleaved by thrombin at R372-S373, R740-S741, and R1689-S1690 to yield factor VIIIa
T1 sequence (P00451 20-391): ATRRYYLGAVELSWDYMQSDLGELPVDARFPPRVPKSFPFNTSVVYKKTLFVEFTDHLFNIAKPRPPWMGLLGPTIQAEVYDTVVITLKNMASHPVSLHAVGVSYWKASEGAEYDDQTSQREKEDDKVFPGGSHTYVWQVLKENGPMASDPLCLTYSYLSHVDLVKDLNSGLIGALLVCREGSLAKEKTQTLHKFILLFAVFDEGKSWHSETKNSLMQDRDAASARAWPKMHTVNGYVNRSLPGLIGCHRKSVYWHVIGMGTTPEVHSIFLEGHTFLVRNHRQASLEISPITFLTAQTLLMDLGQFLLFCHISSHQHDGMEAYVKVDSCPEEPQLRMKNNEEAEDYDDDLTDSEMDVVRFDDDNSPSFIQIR
T1 sequence (P00451 392-759): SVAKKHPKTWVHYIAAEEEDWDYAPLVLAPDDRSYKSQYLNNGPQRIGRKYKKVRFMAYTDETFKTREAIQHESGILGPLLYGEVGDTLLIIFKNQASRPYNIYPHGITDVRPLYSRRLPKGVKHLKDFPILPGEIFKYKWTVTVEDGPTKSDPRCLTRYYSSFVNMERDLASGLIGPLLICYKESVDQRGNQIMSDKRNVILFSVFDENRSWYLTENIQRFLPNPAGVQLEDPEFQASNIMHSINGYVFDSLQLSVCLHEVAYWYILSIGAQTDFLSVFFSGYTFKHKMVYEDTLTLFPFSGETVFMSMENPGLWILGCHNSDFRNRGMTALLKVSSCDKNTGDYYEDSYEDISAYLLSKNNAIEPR
T1 sequence (P00451 1709-2351): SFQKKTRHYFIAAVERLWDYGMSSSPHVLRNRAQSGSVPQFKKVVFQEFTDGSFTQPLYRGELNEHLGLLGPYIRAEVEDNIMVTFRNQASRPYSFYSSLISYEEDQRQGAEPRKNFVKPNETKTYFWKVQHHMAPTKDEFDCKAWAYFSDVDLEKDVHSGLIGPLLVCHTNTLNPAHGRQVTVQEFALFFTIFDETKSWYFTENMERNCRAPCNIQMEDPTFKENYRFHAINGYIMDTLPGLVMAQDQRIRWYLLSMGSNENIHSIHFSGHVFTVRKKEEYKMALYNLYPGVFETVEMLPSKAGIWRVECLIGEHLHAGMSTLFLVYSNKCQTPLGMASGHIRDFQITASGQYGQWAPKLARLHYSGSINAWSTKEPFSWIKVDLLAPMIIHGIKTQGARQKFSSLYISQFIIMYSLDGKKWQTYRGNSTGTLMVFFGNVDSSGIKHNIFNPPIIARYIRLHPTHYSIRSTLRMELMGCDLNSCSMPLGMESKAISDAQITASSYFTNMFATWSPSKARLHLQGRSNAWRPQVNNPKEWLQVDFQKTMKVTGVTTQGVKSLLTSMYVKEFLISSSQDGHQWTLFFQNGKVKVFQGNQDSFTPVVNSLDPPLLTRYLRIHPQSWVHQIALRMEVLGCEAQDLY
The assay can be described thus: EC50 for factor IXa-factor VIIIa interaction in the tenase complex. It is filed as biochemical. The note with it: 0.07 nM factor VIIIa, 480 nM factor X, 10 μM PL, 5 mM CaCl2; read-out: EC50 (functional Kd) for factor IXa-factor VIIIa interaction. On the procedure:
Determination of the EC50 of for Factor IXa-Factor VIIIa Interaction in the Tenase Complex
These experiments are performed with normal factor IXa in the presence of phospholipid (PL) vesicles. 50-μl reaction mixtures in TBS-BSA (50 mM Tris-HCl, pH 7.4, 1 mg/ml BSA) with 5 mM CaCl2 and 10 μM PL are prepared containing a fixed concentration of factor VIIIa (0.07 nM) and various concentrations of factor IXa (0-20 nM) at a constant concentration of factor X (480 nM), which is added last to initiate the reaction. The reaction is carried out at 37° C. for 30-120 seconds at which time 1 μl of 0.5 M EDTA is added to stop further generation of factor Xa. A 40 μl aliquot is added to a 0.1-mL quartz cuvette containing a synthetic substrate S-2222 in 75 μl of TBS-BSA, pH 7.4. The final concentration of S-2222 is 100 μM. The p-nitroaniline release is measured continuously (ΔA405/min) for up to 20 minutes (Mathur et al., 1997). Factor Xa generated is calculated from a standard curve constructed using factor Xa prepared by insolubilized Russell's viper venom. In control experiments, at each factor X concentration used, the rate of factor Xa generation is also measured at various concentrations of normal factor IXa in the absence of factor VIIIa; these control values are ˜5% of the experimental values in the presence of factor VIIIa and are subtracted before analysis of the data. […]

Assay [1] has as its target IXaPCEGF1:A2 subunit interaction. As to the kind of experiment: A2 558-565 peptide inhibition of IXaPCEGF1:A2 subunit interaction (factor X activation, tenase system). It is filed as biochemical, human. To be noted: 100 nM IXaPCEGF1, 30 nM A2 subunit, 250 nM factor X, 25 μM PL (FIG. 5). The protocol: (§1) Determination of the Apparent Kdpeptide of Binding of Each Factor IXa to the A2 558-565 Peptide.
(§2) The apparent Kd (termed Kdpeptide) for binding of each factor IXa to the A2 558-565 peptide was determined by its ability to inhibit the respective IXa:A2 subunit interaction as measured by reduction in the rate of factor X activation in the tenase system. The reaction mixtures for both IXaWT and IXaPCEGF1 contained 100 nM factor IXa, 30 nM A2 subunit, 250 nM factor X, and 25 μM PL in TBS/BSA, pH 7.5 with 5 mM CaCl2. The reaction mixture for IXaR333Q contained 300 nM factor IXa instead of 100 nM used for IXaWT or IXaPCEGF1; concentrations of other components were the same. The amount of factor Xa generated was determined by hydrolysis of S-2222. The IC50 values were obtained using Eq. 2. Here, y is the rate of factor Xa formation in the presence of a given concentration of the A2 558-565 peptide represented by x, and a is the maximum rate of factor Xa formation in the absence of the A2 peptide. Eq. 3 was then used to obtain the apparent Kdpeptide values. In this context, A is the concentration of IXaWT, IXaPCEGF1, or IXaR333Q, and EC50 is the apparent KdA2 for the respective IXa:A2 subunit interaction.

The target in assay [2] is T2, IXaR333Q:A2 subunit interaction (Homo sapiens, UniProt P00740, R379Q).
T2 construct: made in house
T2 sequence (P00740 47-191): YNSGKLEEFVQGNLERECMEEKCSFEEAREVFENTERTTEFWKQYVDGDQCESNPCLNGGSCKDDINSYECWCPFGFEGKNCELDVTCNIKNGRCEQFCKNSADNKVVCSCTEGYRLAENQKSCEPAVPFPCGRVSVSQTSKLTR
T2 sequence (P00740 227-461 R379Q): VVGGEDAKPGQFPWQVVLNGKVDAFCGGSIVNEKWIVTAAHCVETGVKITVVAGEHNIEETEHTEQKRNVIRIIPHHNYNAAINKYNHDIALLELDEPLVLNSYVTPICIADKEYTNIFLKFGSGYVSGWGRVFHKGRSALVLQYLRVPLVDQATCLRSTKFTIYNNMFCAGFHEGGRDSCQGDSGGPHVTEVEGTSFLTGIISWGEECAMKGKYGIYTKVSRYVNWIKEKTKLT
The assay can be described thus: A2 558-565 peptide inhibition of IXaR333Q:A2 subunit interaction (factor X activation, tenase system). In kind it is biochemical. The protocol:
as §1, §2

The next assay concerns factor Xa generation. The note with it: Fay et al., 1994; Fay and Koshibu, 1998; cited from earlier work.
The target of assay [3] is factor IXaPCEGF1 (factor IXa replacement mutant in which the EGF1 domain is replaced by that of protein C) (human) (UniProt P04070). As to the kind of experiment: apparent Kdpeptide against that of WT.
Assay [4] shares this target. The assay can be described thus: calculated from apparent Kdpeptide, against WT.
Assay [5] deals with T3, factor IXaR333Q (factor IXa point mutant in which Arg333 is replaced by Gln) (human, UniProt P00740 47-190; P00740 227-461, gamma-carboxyglutamic acid residues in the Gla domain (normal Gla content)).
T3 construct: R333 is c165 in chymotrypsin numbering; also called IXR333Q
T3 sequence (P00740 47-190, change not shown, form in doubt, chain 1 of 2): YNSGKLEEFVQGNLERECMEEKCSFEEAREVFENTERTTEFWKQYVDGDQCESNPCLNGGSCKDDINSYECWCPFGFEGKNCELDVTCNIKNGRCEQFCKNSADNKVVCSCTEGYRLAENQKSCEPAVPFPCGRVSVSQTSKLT
T3 sequence (P00740 other isoform, or with tags, fused parts or gaps mutant, form in doubt, chain 2 of 2): as the sequence (P00740 227-461 R379Q) above
As to the kind of experiment: apparent Kdpeptide against that of WT. An excerpt:
Eq. 3 was then used to obtain the apparent Kdpeptide values.
(§3) The Cheng and Prusoff relationship (Cheng and Prusoff, 1973; Craig, 1993) was then used to obtain apparent Kdpeptide values for each factor IXa protein.

Assay [6] deals with factor IXaPCEGF1 (factor IXa replacement mutant in which the EGF1 domain is replaced by that of protein C) (human) (UniProt P04070). As to the kind of experiment: calculated from apparent Kdpeptide (RT ln Kd, 298 K).
The target in assay [7] is T3, factor IXaR333Q (factor IXa point …). As to the kind of experiment: peptide inhibition of IXa:A2 interaction; factor Xa generation (FIG. 5). On the procedure: (§4) Factor Xa generation was determined by S-2222 hydrolysis, and the curves represent best fit to the IC₅₀ four-parameter logistic equation (Eq. 2).
(§5) The amount of factor Xa generated was determined by hydrolysis of S-2222. The IC₅₀ values were obtained using Eq. 2. […] Eq. 3 was then used to obtain the apparent Kdpeptide values.

Assay [8] has as its target factor IXaPCEGF1 (factor IXa replacement mutant in which the EGF1 domain is replaced by that of protein C) (human) (UniProt P04070). As to the kind of experiment: peptide inhibition of IXaPCEGF1:A2 in tenase assay (FIG. 5); IC50 converted by Cheng-Prusoff; apparent Kdpeptide.
Assay [9] shares this target. The assay can be described thus: peptide inhibition of IXaPCEGF1:A2 interaction; 100 nM IXa, 30 nM A2, 250 nM factor X; factor Xa generation (FIG. 5).
The target in assay [10] is T4, factor IXaWT (wild-type recombinant factor IX activated by factor XIa) (human, UniProt P00740 47-190; P00740 227-461, gamma-carboxyglutamic acid residues in the Gla domain (residues 1-40, 12 Gla; normal Gla content)).
T4 construct: Two-chain, disulfide-linked protease; also called IXWT
T4 sequence (P00740 47-190, form in doubt, chain 1 of 2): as the sequence (P00740 47-190, change not shown, form in doubt, chain 1 of 2) above
T4 sequence (P00740 227-461, form in doubt, chain 2 of 2): as the sequence (P00740 227-461 R379Q) above, with Q153R counted along it
The assay can be described thus: peptide inhibition of IXaWT:A2 interaction; 100 nM IXa, 30 nM A2, 250 nM factor X; factor Xa generation (FIG. 5). On the procedure:
as §4, §5

The target in assay [11] is T4, factor IXaWT (wild-type recombinant …). As to the kind of experiment: peptide inhibition of IXaWT:A2 in tenase assay (FIG. 5); IC50 converted by Cheng-Prusoff; apparent Kdpeptide. The protocol: as §5, §3
The target of assay [12] is T3, factor IXaR333Q (factor IXa point …). The assay can be described thus: peptide inhibition of IXaR333Q:A2 interaction; 300 nM IXa, 30 nM A2, 250 nM factor X; factor Xa generation (FIG. 5). On the procedure: as §4, §5
Assay [13] has the same target. As to the kind of experiment: peptide inhibition of IXaR333Q:A2 in tenase assay (FIG. 5); IC50 converted by Cheng-Prusoff; apparent Kdpeptide. The protocol: as §5

Turning to “normal factor IXa: normal factor IXa used in the tenase complex of Example 2”, the EC50 in the assay with factor VIIIa was around 0.0004 µM.

In the case of SVDQRGNQ [A2 558-565 peptide], the IC50 in assay [1] was around 8 µM. The “Fold higher IC50 for IXaR333Q:A2 than for IXaWT or IXaPCEGF1” value in assay [2] is around 9 fold. Further, the “Effect on factor Xa generation in purified systems” value with factor Xa generation is listed as “inhibit factor Xa generation”.

As to SVDQRGNQ [synthetic peptide corresponding to the A2 subunit residues 558-565 (Ser-Val-Asp-Gln-Arg-Gly-Asn-Gln)], the fold-change in apparent Kd (mutant/WT) in assay [3] is 1 fold; in assay [5], 15 fold. The change in delta G° between the mutant and WT in [4] was 0 kcal/mol. Also, the Gibbs free energy (delta G° peptide) in [6] is 7.36 kcal/mol. Also, the “fold higher IC50 than for IXaWT or IXaPCEGF1” value in assay [7] is around 9 fold. Also, the Kd in assay [8] is 4 µM; in assay [11], 4 µM; in [13], 62 µM. For the same molecule, the IC50 in assay [9] is 8 µM; in assay [10], around 8 µM; in assay [12] it was around 70 µM.
